This is an account of results in paper PMC5934636.

One data set deals with T1, human La (hLa) (human, UniProt P05455 1-408).
T1 sequence: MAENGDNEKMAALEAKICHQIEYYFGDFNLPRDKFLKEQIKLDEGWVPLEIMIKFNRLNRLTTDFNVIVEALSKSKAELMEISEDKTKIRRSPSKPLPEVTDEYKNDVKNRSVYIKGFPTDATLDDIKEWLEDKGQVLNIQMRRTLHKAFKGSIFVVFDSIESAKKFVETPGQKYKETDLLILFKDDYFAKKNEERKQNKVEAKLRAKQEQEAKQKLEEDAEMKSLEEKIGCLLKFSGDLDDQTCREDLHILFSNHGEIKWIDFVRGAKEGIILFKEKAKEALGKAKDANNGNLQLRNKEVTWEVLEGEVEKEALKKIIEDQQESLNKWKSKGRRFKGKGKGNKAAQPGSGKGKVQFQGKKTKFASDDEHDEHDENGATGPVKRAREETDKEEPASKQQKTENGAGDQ
The data set can be described thus: competition.

The next data set addresses T2, hLa K86A/T87A/K88A (human, UniProt P05455 1-408, K86A;T87A;K88A).
T2 sequence: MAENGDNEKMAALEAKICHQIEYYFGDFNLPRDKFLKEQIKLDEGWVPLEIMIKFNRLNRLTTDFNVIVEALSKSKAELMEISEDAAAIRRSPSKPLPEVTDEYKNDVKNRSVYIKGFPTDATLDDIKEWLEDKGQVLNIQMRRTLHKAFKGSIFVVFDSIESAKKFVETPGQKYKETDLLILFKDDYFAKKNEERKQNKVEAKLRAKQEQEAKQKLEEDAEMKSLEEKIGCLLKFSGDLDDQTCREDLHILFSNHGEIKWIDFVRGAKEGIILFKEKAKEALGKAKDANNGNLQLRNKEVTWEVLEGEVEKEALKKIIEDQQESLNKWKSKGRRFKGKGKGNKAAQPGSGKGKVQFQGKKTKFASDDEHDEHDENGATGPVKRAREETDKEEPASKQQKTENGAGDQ
The data set can be described thus: EMSA.

A further data set deals with T3, hLa R32A/K34A/K37A (human, UniProt P05455 1-408, R32A;K34A;K37A).
T3 sequence: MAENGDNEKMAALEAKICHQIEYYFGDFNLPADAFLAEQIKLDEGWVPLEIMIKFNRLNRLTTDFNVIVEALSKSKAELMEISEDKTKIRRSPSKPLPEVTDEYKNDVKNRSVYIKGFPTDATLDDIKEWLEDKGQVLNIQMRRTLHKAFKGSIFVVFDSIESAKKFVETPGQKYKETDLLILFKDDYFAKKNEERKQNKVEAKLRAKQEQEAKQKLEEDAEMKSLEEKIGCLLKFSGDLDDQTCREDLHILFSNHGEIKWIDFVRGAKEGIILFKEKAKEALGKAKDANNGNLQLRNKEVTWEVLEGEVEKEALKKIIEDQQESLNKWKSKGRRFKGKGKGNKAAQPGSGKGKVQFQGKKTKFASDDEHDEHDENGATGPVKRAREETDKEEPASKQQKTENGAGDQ
The data set can be described thus: EMSA. For orientation: In EMSA bound probe runs differently from free probe, usually more slowly.

Take UUUUUUUUUUUUUUUUUUUU (ssRNA) [U20]: in the data set with human La (hLa), the binding result was “binds”. Consider UUUUUUUUUU (ssRNA) [U10], for which the binding result with hLa K86A/T87A/K88A and in the data set with hLa R32A/K34A/K37A was “binds” in each case. In the case of AAAAAAAAAAAAAAAAAAAA (ssRNA) [A20], the binding result with hLa R32A/K34A/K37A is “binds”.
